Results: patent US20240076371A1, “COMPOSITIONS AND METHODS FOR TREATING OSTEOARTHRITIS, RHEUMATOID ARTHRITIS, AND JOINT AND TENDON DISORDERS” (BOARD OF REGENTS, THE UNIVERSITY OF TEXAS SYSTEM, priority 2021, published 2024)
Values belong to the molecule of their own block, whether it stands above or below them.

Key:
[1] = target: T1, Cx43 hemichannels in mouse macrophage RAW264.7 cells (Mus musculus, UniProt P23242); experiment: EtBr dye uptake assay in LPS-treated RAW264.7 cells; assay type: cell-based
T1 construct: endogenous in cells; host or cells: RAW264.7 (mouse macrophage), LPS-treated
Protocol: (§1) Dye uptake assay. Cells were incubated with a mixture of 0.1 mM ethidium bromide (EtBr, MW 394 Da) and 1 mg/ml FITC-dextran (MW 10 kDa) for 5 minutes. EtBr was used as a tracer to detect hemichannel activity, and FITC-dextran, which is too large to pass through hemichannels but is taken up by dying cells, was used as a negative control. Cells were then rinsed five times with PBS, followed by fixing with 2% paraformaldehyde for 10 minutes. At least six microphotographs of fluorescence fields were captured under a 20× fluorescent microscope (Keyence, BZ-X710, Osaka, Japan). For each image, the average intensity of EtBr fluorescence was measured and quantified from at least 30 random cells using ImageJ software (NIH, Bethesda, USA). […]
(§2) Anti-Cx43 hemichannel antibody (M1 antibody) blocked Cx43 hemichannel opening and inflammatory gene expression in RAW264.7 and SW982 cells. […] The activity of Cx43 hemichannels was determined using EtBr dye uptake assay. […] Next, MMP3/13, Cyclooxygenase 2 (COX2), ADAM metallopeptidase with thrombospondin type 1 motif 4 (Adamts4), and IL6 gene expression was determined with or without Cx43E2 antibody after LPS treatment of RAW264.7 cells (FIG. 18). […] In addition, MMP3/13, COX2, Adamts4/5, and Nitric Oxide Synthase 2 (NOS2) gene expression was evaluated in IL1β-treated SW982 cells (FIG. 19).

[2] = target: T2, Cx43 hemichannels in human synovial fibroblast SW982 cells (Homo sapiens, UniProt P17302); experiment: EtBr dye uptake assay in IL1β-treated SW982 cells; assay type: cell-based
T2 construct: endogenous in cells; host or cells: SW982 (human synovial fibroblast), IL1β-treated
Protocol: as §1, §2

[3] = target: T3, Connexin 43 (Cx43) hemichannel, mouse (mouse, UniProt P23242 2-382); experiment: in vivo binding after i.p. injection; frozen knee sections stained with Alexa Fluor 594 anti-human IgG
T3 construct: whole, on cells; also called Cx43 HCs
Protocol: M1 antibody binds to synovium and inhibits hemichannel opening in OA. Due to the dense nature of cartilage and large size of antibodies, a widely held perception is that antibodies are unable to penetrate the cartilage matrix. To determine the antibody binding pattern in the knee joint region, M1 antibody (25 mg/kg) with human IgG epitope or saline was intraperitoneally (i.p.) injected at 30 mins after DMM surgery. As shown in the diagram (FIG. 8A), mice were euthanized and perfused before isolation of hindlimbs at one or two weeks after injection. Frozen tissue sections were prepared and immuno-labeled with Alexa Fluor 594-conjugated anti-human IgG secondary antibody. The signal was detectable at both one and two weeks after antibody administration, with the antibody binding site primarily localized in the synovium region (FIG. 8B). The synovium of joints comprises macrophage-like type A cells, which are responsible for phagocytosing synovial fluid, and fibroblast-like type B cells, which produce hyaluronic acid and mucin to nourish and mechanically protect, respectively, the underlying articular cartilage (Donahue H J, et al. Nature reviews Rheumatology. 2017; 14(1):42-51). Then the sections were immuno-labeled with the macrophage marker CD68, and the M1 antibody was co-localized with CD68 in the synovium region (FIG. 9). […]

[4] = tested on: IL1β-induced inflammatory gene expression in SW982 cells; experiment: qRT-PCR of IL1β-induced inflammatory gene expression in SW982 cells; assay type: cell-based, human; conditions: pre-incubated 30 min, 1 ng/ml IL1β for 14 hrs
Protocol: Human synovial fibroblast SW982 cells were pre-incubated with or without the Cx43E2 antibody for 30 min followed by incubation with 1 ng/ml IL1β for 14 hrs. RNA extracts were prepared and subjected to qRT-PCR analysis for COX2, Adamts4/5, MMP3/13 and NOS2 mRNA expression. *P<0.05, **P<0.01.
(§3) RNA isolation and real-time PCR. Total RNA was isolated from RAW264.7 and SW982 cells using TRI Reagent (Molecular Research Center, Cincinnati, USA) according to the manufacturer's instructions. After RNA quantification by Nanodrop 2000, cDNA was synthesized from 1 μg of total RNA using the high-capacity RNA-to-cDNA kit (Thermo Fisher Scientific, Waltham, USA). […]
as §2

[5] = tested on: LPS-induced inflammatory gene expression in RAW264.7 cells; experiment: qRT-PCR of LPS-induced inflammatory gene expression in RAW264.7 cells; assay type: cell-based, mouse; conditions: pre-incubated 30 min, 0.1 μg/ml LPS for 4 hrs
Protocol: Mouse macrophage RAW264.7 cells were pre-incubated with or without the Cx43E2 antibody for 30 min followed by incubation with 0.1 μg/ml LPS for 4 hrs. RNA extracts were prepared and subjected to qRT-PCR analysis for COX2, Adamts4, MMP3/13 and IL6 mRNA expression. *P<0.05, **P<0.01.
as §3, §2

T2 sequence (P17302 whole entry): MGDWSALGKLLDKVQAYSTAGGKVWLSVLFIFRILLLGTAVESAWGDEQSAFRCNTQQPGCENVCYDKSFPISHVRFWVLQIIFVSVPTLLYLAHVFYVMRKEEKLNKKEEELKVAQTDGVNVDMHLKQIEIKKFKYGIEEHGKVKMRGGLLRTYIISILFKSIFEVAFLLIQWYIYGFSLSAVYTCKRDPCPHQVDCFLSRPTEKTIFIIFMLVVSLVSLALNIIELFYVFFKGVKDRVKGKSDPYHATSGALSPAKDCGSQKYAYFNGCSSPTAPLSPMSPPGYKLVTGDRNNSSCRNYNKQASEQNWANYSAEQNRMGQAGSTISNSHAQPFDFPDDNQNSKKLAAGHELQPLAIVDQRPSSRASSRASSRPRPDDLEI
T1 sequence (P23242 whole entry): as the sequence (P17302 whole entry) above, with D124E, I164V, K243R, S251T, A253P, A257S, Q263P, N341S, S344A, L347V counted along it
T3 sequence (P23242 2-382): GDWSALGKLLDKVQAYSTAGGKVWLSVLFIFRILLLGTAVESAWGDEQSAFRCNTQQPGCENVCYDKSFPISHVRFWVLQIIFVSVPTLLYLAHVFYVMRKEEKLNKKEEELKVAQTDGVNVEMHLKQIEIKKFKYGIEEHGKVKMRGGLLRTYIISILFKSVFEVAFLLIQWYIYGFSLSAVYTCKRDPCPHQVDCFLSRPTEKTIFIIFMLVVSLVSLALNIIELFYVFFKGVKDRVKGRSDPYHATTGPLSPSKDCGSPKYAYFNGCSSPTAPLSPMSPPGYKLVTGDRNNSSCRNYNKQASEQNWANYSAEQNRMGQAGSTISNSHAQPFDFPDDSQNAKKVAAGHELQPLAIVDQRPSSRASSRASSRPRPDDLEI

LPS-induced increase of Cx43 hemichannel opening (EtBr dye uptake) ([1]; CBX 100 μM): abolished | IL1β-induced increase of Cx43 hemichannel opening (EtBr dye uptake) ([2]; CBX 100 μM): abolished
Molecule: CC1(C)[C@@H](OC(=O)CCC(=O)O)CC[C@]2(C)[C@H]3C(=O)C=C4[C@@H]5C[C@@](C)(C(=O)O)CC[C@]5(C)CC[C@@]4(C)[C@]3(C)CC[C@@H]12 [carbenoxolone, reference compound]

binding result [3]: binds
B1: M1 antibody (anti-Cx43 hemichannel blocking antibody) (antibody, V domains shown)
VH: EVQLQQPGAELVKPGASVKLSCKASGYTFTSYYMYWVKQRPGQGLEWIGGINPSNGGTNFNEKFKNKATLTVDKSSSTAYMQLSSLTSEDSAVYYCTREGNPYYTMNYWGQGTSVTVSS
VL: DIVMTQSPSSLSVSAGEKVTMSCKSSQSLLNSGNQKTYLAWYQQKPGQPPKLLIYGASTRESGVPDRFTGSGSGTDFTLTISSVQAEDLAVYYCQNDHSYPFTFGSGTKLEIK
notes: also called HmAb1; anti-Cx43 hemichannel antibody

LPS-induced increase of Cx43 hemichannel opening (EtBr dye uptake) ([1]; antibody 2 μg/ml): abolished | IL1β-induced increase of Cx43 hemichannel opening (EtBr dye uptake) ([2]; antibody 2 μg/ml): abolished
B2: Cx43E2 blocking antibody: Cx43 hemichannel blocking antibody used in RAW264.7 and SW982 cells; headings and legends call it anti-Cx43 hemichannel antibody (M1 antibody) (antibody, V domains shown)
VH: EVQLQQPGAELVKPGASVKLSCKASGYTFTSYYMYWVKQRPGQGLEWIGGINPSNGGTNFNEKFKNKATLTVDKSSSTAYMQLSSLTSEDSAVYYCTREGNPYYTMNYWGQGTSVTVSS
VL: DIVMTQSPSSLSVSAGEKVTMSCKSSQSLLNSGNQKTYLAWYQQKPGQPPKLLIYGASTRESGVPDRFTGSGSGTDFTLTISSVQAEDLAVYYCQNDHSYPFTFGSGTKLEIK
MMP3/13, COX2, Adamts4/5 and NOS2 gene expression after IL1β treatment [4]: significantly reduced | LPS-induced up-regulation of MMP3/13, COX2, Adamts4 and IL6 gene expression [5]: markedly decreased
